One molecule from patent US20210017289A1 (AbbVie / Abbott, published 2021) can be followed below.

Assay [1] deals with T1, human OX40 expressed on cells (human, UniProt P43489 29-277).
T1 sequence: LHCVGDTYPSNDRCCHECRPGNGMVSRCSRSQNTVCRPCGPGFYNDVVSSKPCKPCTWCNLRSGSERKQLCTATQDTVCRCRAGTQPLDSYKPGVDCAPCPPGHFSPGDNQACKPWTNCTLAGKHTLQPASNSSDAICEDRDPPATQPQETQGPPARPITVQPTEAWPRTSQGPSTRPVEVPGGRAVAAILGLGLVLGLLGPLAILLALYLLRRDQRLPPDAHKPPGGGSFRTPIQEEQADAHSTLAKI
Put plainly: cell-based or functional assay.

In assay [2] the target is T2, mouse OX40 expressed on 293s cells (mouse, UniProt P47741 20-272).
T2 construct: also called murine OX40
T2 sequence: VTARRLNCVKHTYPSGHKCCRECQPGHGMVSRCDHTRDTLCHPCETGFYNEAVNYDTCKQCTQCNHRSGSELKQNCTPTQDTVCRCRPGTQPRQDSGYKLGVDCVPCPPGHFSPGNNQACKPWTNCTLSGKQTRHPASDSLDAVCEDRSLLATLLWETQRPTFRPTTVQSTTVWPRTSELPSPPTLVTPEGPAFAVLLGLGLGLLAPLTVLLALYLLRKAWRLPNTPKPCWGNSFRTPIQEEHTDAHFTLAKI
Put plainly: flow cytometry on 293s-muOX40 cells. On the procedure: (§1) After plating cells, 50 μL of Hu3738 or isotype control antibody at 2 μg/mL were added to corresponding wells in duplicate for each cell line and allowed to incubate on ice for 30 minutes. Following incubation, 200 μL of Dulbecco's Phosphate Buffered Saline (DPBS) was added into each well and plates were spun down at 1000 rpm for three minutes. Supernatants from each well were removed and 50 μL of Cy5-Donkey anti-Human IgG (Jackson ImmunoResearch) secondary antibody was added at a 1:250 dilution, which was then incubated for 30 minutes on ice in the dark. Following the incubation period, 200 μL of DPBS was added prior to spinning down the plate at 1000 rpm for three minutes. Supernatants were removed and each well was re-suspended with 100 μL of DPBS+1% Formaldehyde. Samples were analyzed on the dual laser FACSCalibur flow cytometer (Becton Dickinson).
On the technique in general: In flow cytometry, cells or beads pass a laser one at a time.

The target in assay [3] is T3, human OX40 chimera with murine CRDII replacing human CRDII (human/mouse chimera, UniProt P43489 29-277).
T3 chain: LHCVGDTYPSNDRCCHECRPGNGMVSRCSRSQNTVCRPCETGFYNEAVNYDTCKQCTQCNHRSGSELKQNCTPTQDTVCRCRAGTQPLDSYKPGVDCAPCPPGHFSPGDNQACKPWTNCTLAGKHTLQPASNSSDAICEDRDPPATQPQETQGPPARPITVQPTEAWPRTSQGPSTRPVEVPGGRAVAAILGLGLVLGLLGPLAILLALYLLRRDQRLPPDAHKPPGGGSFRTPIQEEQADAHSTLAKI
Put plainly: flow cytometry on 293s-huOX40-muCRDII cells. The method, then: as §1

Assay [4] has as its target T1, human OX40 expressed on cells. Put plainly: flow cytometry on Jurkat NF-κB reporter cells expressing human OX40. On the procedure:
A Jurkat NF-κB reporter cell line expressing human OX40 protein was cultured in DMEM containing 10% FBS and penicillin/streptomycin (pen/strep). For the binding assay, each cell line was resuspended at 5 million cells per mL. 50 μL (250,000 cells)/well were transferred to each well of a 500 μL polypropylene 96-well plate (Nunc). A 2× stock of test anti-OX40 antibody or isotype control mAb was prepared in a separate dilution plate at 666, 333, 111, 37.03, 12.34, 4.11, 0.457, 0.152, 0.0508, 0.0169, 0.00564 nM in culture media. Each antibody (50 μL/well) was transferred into respective wells of the assay plate. Cells were incubated with the test anti-OX40 antibody or isotype control antibodies for 30 minutes at 4° C. and washed twice with 250 μL/well of PBS by centrifuging at 800 rpm for 3 minutes. Bound antibody was detected with Cy5-Donkey anti-human IgG (H+L) (Jackson ImmunoResearch) diluted to 2 μg/mL (50 μL/well) in PBS for 30 minutes at 4° C. Cells were washed once with 250 μL/well of PBS, resuspended in PBS containing 1% Formaldehyde and analyzed on a dual laser FACSCalibur (Becton Dickinson).

B1: Hu3738 (antibody, V domains shown)
VH: EVQLVESGGGLVQPGGSLRLSCAASGFTFSRYGMSWVRQAPGKGLELVATINSNGGRTYYPDSVKGRFTISRDNAKNSLYLQMNSLRAEDTAVYYCAREGITTAYAMDYWGQGTTVTVSS
VL: DIVMTQSPDSLAVSLGERATINCKASQSVDYDGDSYMHWYQQKPGQPPKLLIYAASILESGVPDRFSGSGSGTDFTLTISSLQAEDVAVYYCQQSNEDPRTFGGGTKVEIKR
notes: Humanized antibody; also called exemplary anti-OX40 antibody Hu3738; Hu3738 VH.1b / Hu3738 VL.1
For B1, in assay [1], the “EC50 With Cross-linker (nM), NF-κB signaling” value came to 0.088 nM. Further, in assay [1], the “EC50 Without Cross-linker (nM), NF-κB signaling” value was 20 nM. The binding result in assay [2] and in assay [3] was “no binding (tested: 2 µg/mL)” each time. In assay [4], the midpoint of the response, the EC50, lay at 0.075 µg/mL.
